{"source": "patent US7985715B2", "about": "(priority 2004, dated 2011)", "molecules": {"B1": {"name": "artificial receptor No. 89 (n=3): peptide building blocks RY HM MY (designed binder)", "peptide 1": "Ac-KAGAGRGY-NHMe", "peptide 2": "Ac-KAGAGHGM-NHMe", "peptide 3": "Ac-KAGAGMGY-NHMe"}, "B2": {"name": "artificial receptor No. 71 (n=3): peptide building blocks RM MY TY (designed binder)", "peptide 1": "KAGAGRGM-NHMe", "peptide 2": "Ac-KAGAGMGY-NHMe", "peptide 3": "Ac-KAGAGTGY-NHMe", "modifications": "not fully specified (N-terminus)"}, "B3": {"name": "artificial receptor No. 93 (n=3): peptide building blocks RY MY DD (designed binder)", "peptide 1": "Ac-KAGAGRGY-NHMe", "peptide 2": "Ac-KAGAGMGY-NHMe", "peptide 3": "Ac-KAGAGDGD-NHMe"}, "B4": {"name": "artificial receptor No. 46 (n=3): peptide building blocks RM RY QH (designed binder)", "peptide 1": "KAGAGRGM-NHMe", "peptide 2": "Ac-KAGAGRGY-NHMe", "peptide 3": "Ac-KAGAGQGH-NHMe", "modifications": "not fully specified (N-terminus)"}, "B5": {"name": "artificial receptor No. 61 (n=3): peptide building blocks RM QM MY (designed binder)", "peptide 1": "Ac-KAGAGRGM-NHMe", "peptide 2": "Ac-KAGAGQGM-NHMe", "peptide 3": "Ac-KAGAGMGY-NHMe"}, "B6": {"name": "artificial receptor No. 15 (n=2): peptide building blocks RM MY (designed binder)", "peptide 1": "Ac-KAGAGRGM-NHMe", "peptide 2": "Ac-KAGAGMGY-NHMe"}, "B7": {"name": "artificial receptor No. 72 (n=3): peptide building blocks RM MY DD (designed binder)", "peptide 1": "KAGAGRGM-NHMe", "peptide 2": "Ac-KAGAGMGY-NHMe", "peptide 3": "Ac-KAGAGDGD-NHMe", "modifications": "not fully specified (N-terminus)"}, "B8": {"name": "artificial receptor No. 278 (n=5): peptide building blocks RM RY QM MY TY (designed binder)", "peptide 1": "KAGAGRGM", "peptide 2": "KAGAGRGY", "peptide 3": "KAGAGQGM", "peptide 4": "KAGAGMGY", "peptide 5": "KAGAGTGY", "modifications": "not fully specified; N-terminal acetyl (Ac-HN-); C-terminal methyl amide (-C(O)-NH-CH3)"}, "B9": {"name": "artificial receptor No. 50 (n=3): peptide building blocks RM RY MY (designed binder)", "peptide 1": "KAGAGRGM-NHMe", "peptide 2": "Ac-KAGAGRGY-NHMe", "peptide 3": "Ac-KAGAGMGY-NHMe", "modifications": "not fully specified (N-terminus)"}, "B10": {"name": "artificial receptor No. 49 (n=3): peptide building blocks RM RY HM (designed binder)", "peptide 1": "KAGAGRGM-NHMe", "peptide 2": "Ac-KAGAGRGY-NHMe", "peptide 3": "Ac-KAGAGHGM-NHMe", "modifications": "not fully specified (N-terminus)"}, "B11": {"name": "artificial receptor No. 68 (n=3): peptide building blocks RM HM MY (designed binder)", "peptide 1": "KAGAGRGM-NHMe", "peptide 2": "Ac-KAGAGHGM-NHMe", "peptide 3": "Ac-KAGAGMGY-NHMe", "modifications": "not fully specified (N-terminus)"}, "B12": {"name": "artificial receptor No. 133 (n=4): peptide building blocks RM RY QH MY (designed binder)", "peptide 1": "KAGAGRGM-NHMe", "peptide 2": "Ac-KAGAGRGY-NHMe", "peptide 3": "Ac-KAGAGQGH-NHMe", "peptide 4": "Ac-KAGAGMGY-NHMe", "modifications": "not fully specified (N-terminus)"}, "B13": {"name": "artificial receptor No. 65 (n=3): peptide building blocks RM QY MY (designed binder)", "peptide 1": "KAGAGRGM-NHMe", "peptide 2": "Ac-KAGAGQGY-NHMe", "peptide 3": "Ac-KAGAGMGY-NHMe", "modifications": "not fully specified (N-terminus)"}, "B14": {"name": "artificial receptor No. 40 (n=2): peptide building blocks HM MY (designed binder)", "peptide 1": "Ac-KAGAGHGM-NHMe", "peptide 2": "Ac-KAGAGMGY-NHMe"}, "B15": {"name": "artificial receptor No. 10 (n=2): peptide building blocks RM TY (designed binder)", "peptide 1": "KAGAGRGM-NHMe", "peptide 2": "Ac-KAGAGTGY-NHMe", "modifications": "not fully specified (N-terminus)"}, "B16": {"name": "artificial receptor No. 70 (n=3): peptide building blocks RM HM DD (designed binder)", "peptide 1": "KAGAGRGM-NHMe", "peptide 2": "Ac-KAGAGHGM-NHMe", "peptide 3": "Ac-KAGAGDGD-NHMe", "modifications": "not fully specified (N-terminus)"}, "B17": {"name": "artificial receptor No. 56 (n=3): peptide building blocks RM QH MY (designed binder)", "peptide 1": "Ac-KAGAGRGM-NHMe", "peptide 2": "Ac-KAGAGQGH-NHMe", "peptide 3": "Ac-KAGAGMGY-NHMe"}, "B18": {"name": "artificial receptor No. 69 (n=3): peptide building blocks RM HM TY (designed binder)", "peptide 1": "KAGAGRGM-NHMe", "peptide 2": "Ac-KAGAGHGM-NHMe", "peptide 3": "Ac-KAGAGTGY-NHMe", "modifications": "not fully specified (N-terminus)"}, "B19": {"name": "artificial receptor No. 22 (n=2): peptide building blocks RY MY (designed binder)", "peptide 1": "Ac-KAGAGRGY-NHMe", "peptide 2": "Ac-KAGAGMGY-NHMe"}}, "note": "Ends that are not written are not given here.", "data": [{"tested_on": "Anti-FLAG® M2 monoclonal antibody", "assay": "not given", "type": "binding", "conditions": "not given", "values": [{"molecule": "MET-ASP-TYR-LYS-ASP-HIS-ASP-GLY-ASP-TYR-LYS-ASP-HIS-ASP-ILE-ASP-TYR-LYS-ASP-ASP-ASP-ASP-LYS [3×FLAG® peptide]", "binding of anti-FLAG Mab in the microarray (fluorescence)": "bound"}]}, {"target": "fluorescently labeled Anti-FLAG® M2 monoclonal antibody (Sigma)", "assay": "fluorescence microarray: peptides immobilized on epoxide slide, probed with fluorescently labeled antibody", "conditions": "not given", "values": [{"molecule": "B1", "Mean Fluorescence Units (fluorescence units)": 57200}, {"molecule": "B2", "Mean Fluorescence Units (fluorescence units)": 47800}, {"molecule": "B3", "Mean Fluorescence Units (fluorescence units)": 46700}, {"molecule": "B4", "Mean Fluorescence Units (fluorescence units)": 39500}, {"molecule": "KAGAGMGY-NHMe (not fully specified (N-terminus))", "note": "[artificial receptor No. 7 (n=1): peptide building block MY]", "Mean Fluorescence Units (fluorescence units)": 64600}, {"molecule": "B5", "Mean Fluorescence Units (fluorescence units)": 47800}, {"molecule": "B6", "Mean Fluorescence Units (fluorescence units)": 64600}, {"molecule": "B7", "Mean Fluorescence Units (fluorescence units)": 52100}, {"molecule": "KAGAGRGM-NHMe (not fully specified (N-terminus))", "note": "[artificial receptor No. 1 (n=1): peptide building block RM]", "Mean Fluorescence Units (fluorescence units)": 47700}, {"molecule": "B8", "Mean Fluorescence Units (fluorescence units)": 65000}, {"molecule": "B9", "Mean Fluorescence Units (fluorescence units)": 54400}, {"molecule": "B10", "Mean Fluorescence Units (fluorescence units)": 39800}, {"molecule": "B11", "Mean Fluorescence Units (fluorescence units)": 34500}, {"molecule": "B12", "Mean Fluorescence Units (fluorescence units)": 47600}, {"molecule": "B13", "Mean Fluorescence Units (fluorescence units)": 40900}, {"molecule": "B14", "Mean Fluorescence Units (fluorescence units)": 46800}, {"molecule": "B15", "Mean Fluorescence Units (fluorescence units)": 35100}, {"molecule": "B16", "Mean Fluorescence Units (fluorescence units)": 32500}, {"molecule": "B17", "Mean Fluorescence Units (fluorescence units)": 32600}, {"molecule": "B18", "Mean Fluorescence Units (fluorescence units)": 39800}, {"molecule": "B19", "Mean Fluorescence Units (fluorescence units)": 53500}]}, {"tested_on": "Anti-FLAG® M2 monoclonal antibody", "assay": "not given", "conditions": "cited from earlier work", "values": [{"molecule": "ASP-TYR-LYS-ASP-ASP-ASP-ASP-LYS [FLAG® peptide]", "binding by the commercially available antibody": "bound"}]}]}
